One protein from US7018836 can be followed below.

The series deals with Drosophila RNA polymerase II large subunit, P04052.
Drosophila RNA polymerase II large subunit, P04052, sequence (P04052 whole entry): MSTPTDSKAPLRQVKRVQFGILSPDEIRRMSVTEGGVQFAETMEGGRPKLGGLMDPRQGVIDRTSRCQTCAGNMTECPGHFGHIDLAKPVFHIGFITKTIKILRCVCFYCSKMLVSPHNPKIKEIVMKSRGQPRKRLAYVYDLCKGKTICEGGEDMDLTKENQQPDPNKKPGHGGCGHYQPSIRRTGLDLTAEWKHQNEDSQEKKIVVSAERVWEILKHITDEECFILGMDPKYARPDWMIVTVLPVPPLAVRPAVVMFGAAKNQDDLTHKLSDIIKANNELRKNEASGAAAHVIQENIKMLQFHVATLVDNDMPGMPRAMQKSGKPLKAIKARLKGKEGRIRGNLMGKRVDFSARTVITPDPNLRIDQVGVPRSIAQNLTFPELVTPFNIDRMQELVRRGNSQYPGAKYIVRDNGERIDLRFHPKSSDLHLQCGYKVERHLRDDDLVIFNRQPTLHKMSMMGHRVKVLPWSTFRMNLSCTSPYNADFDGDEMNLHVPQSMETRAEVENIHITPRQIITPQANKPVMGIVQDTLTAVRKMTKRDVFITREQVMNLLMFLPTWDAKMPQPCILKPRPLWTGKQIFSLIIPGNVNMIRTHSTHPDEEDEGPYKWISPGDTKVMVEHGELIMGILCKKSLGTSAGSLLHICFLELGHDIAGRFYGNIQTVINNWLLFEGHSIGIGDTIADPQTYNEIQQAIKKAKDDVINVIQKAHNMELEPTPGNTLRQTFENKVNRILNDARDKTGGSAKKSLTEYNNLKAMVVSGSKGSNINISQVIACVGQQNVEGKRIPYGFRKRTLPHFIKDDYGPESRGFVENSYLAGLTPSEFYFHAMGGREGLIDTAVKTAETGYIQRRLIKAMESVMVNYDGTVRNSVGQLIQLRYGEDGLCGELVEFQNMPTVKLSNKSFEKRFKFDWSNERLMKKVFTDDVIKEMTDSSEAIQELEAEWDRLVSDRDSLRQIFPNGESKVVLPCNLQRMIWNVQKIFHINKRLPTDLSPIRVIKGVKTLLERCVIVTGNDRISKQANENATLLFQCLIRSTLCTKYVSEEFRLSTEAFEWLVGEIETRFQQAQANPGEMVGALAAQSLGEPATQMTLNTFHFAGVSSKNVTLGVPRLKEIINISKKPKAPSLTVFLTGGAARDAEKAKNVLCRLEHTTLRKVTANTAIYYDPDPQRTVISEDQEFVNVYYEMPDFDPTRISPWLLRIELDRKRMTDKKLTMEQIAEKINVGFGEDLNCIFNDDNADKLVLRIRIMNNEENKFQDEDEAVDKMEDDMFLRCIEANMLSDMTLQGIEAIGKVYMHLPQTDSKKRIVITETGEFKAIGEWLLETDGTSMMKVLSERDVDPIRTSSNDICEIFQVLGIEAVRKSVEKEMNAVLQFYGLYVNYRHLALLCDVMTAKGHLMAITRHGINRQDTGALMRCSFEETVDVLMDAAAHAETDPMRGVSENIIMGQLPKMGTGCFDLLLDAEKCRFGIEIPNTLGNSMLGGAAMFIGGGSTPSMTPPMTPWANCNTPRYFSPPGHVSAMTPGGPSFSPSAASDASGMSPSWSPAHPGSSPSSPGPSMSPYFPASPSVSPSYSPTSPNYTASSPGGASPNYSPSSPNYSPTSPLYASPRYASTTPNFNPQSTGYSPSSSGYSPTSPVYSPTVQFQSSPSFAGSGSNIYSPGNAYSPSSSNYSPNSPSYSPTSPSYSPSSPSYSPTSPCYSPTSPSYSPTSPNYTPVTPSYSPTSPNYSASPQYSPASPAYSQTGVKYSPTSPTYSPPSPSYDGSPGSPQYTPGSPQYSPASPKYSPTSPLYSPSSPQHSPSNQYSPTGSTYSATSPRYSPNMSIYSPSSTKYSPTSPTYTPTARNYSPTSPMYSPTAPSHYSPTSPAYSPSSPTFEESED

B1: Drosophila P-TEFb (protein)
chain 1: MAHMSHMLQQPSGSTPSNVGSSSSRTMSLMEKQKYIEDYDFPYCDESNKYEKVAKIGQGTFGEVFKAREKKGNKKFVAMKKVLMDNEKEGFPITALREIRILQLLKHENVVNLIEICRTKATATNGYRSTFYLVFDFCEHDLAGLLSNMNVKFSLGEIKKVMQQLLNGLYYIHSNKILHRDMKAANVLITKHGILKLADFGLARAFSIPKNESKNRYTNRVVTLWYRPPELLLGDRNYGPPVDMWGAGCIMAEMWTRSPIMQGNTEQQQLTFISQLCGSFTPDVWPGVEELELYKSIELPKNQKRRVKERLRPYVKDQTGCDLLDKLLTLDPKKRIDADTALNHDFFWTDPMPSDLSKMLSQHLQSMFEYLAQPRRSNQMRNYHQQLTTMNQKPQDNSMIDRVW
chain 2: MSLLATPMPQAATASSSSSASAAASASGIPITANNNLPFEKDKIWYFSNDQLANLPSRRCGIKGDDELQYRQMTAYLIQEMGQRLQVSQLCINTAIVYMHRFYAFHSFTHFHRNSMASASLFLAAKVEEQPRKLEHVIRAANKCLPPTTEQNYAELAQELVFNENVLLQTLGFDVAIDHPHTHVVRTCQLVKACKDLAQTSYFLASNSLHLTSMCLQYRPTVVACFCIYLACKWSRWEIPQSTEGKHWFYYVDKTVSLDLLKQLTDEFIAIYEKSPARLKSKLNSIKAIAQGASNRTANSKDKPKEDWKITEMMKGYHSNITTPPELLNGNDSRDRDRDRERERERERDPSSLLPPPAMVPQQRRQDGGHQRSSSVSGVPGSSSSSSSSSHKMPNYPGGMPPEAHPDHKSKQPGYNNRMPSSHQRSSSSGLGSSGSGSQHSSSSSSSSSQQPGRPSMPVDYHKSSRGMPPVGVGMPPHGSHKMTSGSKPQQPQQQPVPHPSASNSSASGMSSKDKSQSNKMYPNAPPPYSNSAPQNPLMSRGGYPGASNGSQPPPPAGYGGHRSKSGSTVHGMPHFEQQLPYSQSQSYGHMQQQPVPQSQQQQMPPEASQHSLQSKNSLFSPEWPDIKKEPMSQSQPQLFNGLLPPPAPPGHDYKLNSHPRDKESPKKERLTPTKKDKHRPVMPPMGSGNSSSGSGSSKPMLPPHKKQIPHGGDLLTNPGESGSLKRPNEISGSQYGLNKLDEIDNSNMPREKLRKLDTTTGLPTYPNYEEKHTPLNMSNGIETTPDLVRSLLKESLCPSNASLLKPDALTMPGLKPPAELLEPMPAPATIKKEQGITPMTSLASGPAPMDLEVPTKQAGEIKEESSSKSEKKKKKDKHKHKEKDKSKDKTEKEERKKHKRDKQKDRSGSGGSKDSSLPNEPLKMVIKNPNGSLQAGASAPIKLKISKNKVEPNNYSAAAGLPGAIGYGLPPTTATTTSASIGAAAPVLPPYGAGGGGYSSSGGSSSGGSSKKKHSDRDRDKESKKNKSQDYAKYNGAGGGIFNPLGGAGAAPNMSGGMGAPMSTAVPPSMLLAPTGAVPPSAAGLAPPPMPVYNKK
Take B1: the “CTD kinase assay (phosphate incorporation, mobility shift)” value is “incubation of P-TEFb with intact RNA polymerase II caused the incorporation of phosphate into the large subunit and a shift to the IIo form”; the “incorporation of label into the large subunit after chymotrypsin truncation of the CTD” value was “the CTD-less polymerase (20 min digestion) was not detectably phosphorylated”.
